The target of this assay is DSB nucleosomes (position of the break not stated; EMSAs of Figures 5A and 6A) (human) (UniProt P0C0S8).

“hMidm1m2–AID (Δ746–751/S813A/E829A/R847A/Q849A/L852A/K853A/N854A/D856A) (from UniProt Q9Y5B9 644-988) (domain or fragment)” showed a hexasome formation in EMSA with DSB nucleosomes, against wild-type hMid–AID of 2 fold.

The values above are taken from paper PMC4803053.
